{
  "source": "patent US11802878B2",
  "about": "“Protein sequencing method and reagents” (The Governing Council of the University of Toronto, priority 2009, dated 2023)",
  "molecules": {"B1": {"name": "ClpS WT: truncated wildtype E. coli ClpS polypeptide, 84 amino acids, SEQ ID NO: 1, displayed on phage (protein, listed as Escherichia coli)", "chain": "KPPSMYKVILVNDDYTPMEFVIDVLQKFFSYDVERATQLMLAVHYQGKAICGVFTAEVAETKVAMVNKYARENEHPLLCTLEKA", "modifications": "phage display"}},
  "key": {"[1]": {"system": "immobilized biotinylated peptide, N-terminal amino acid G (X-SDGMFTAGSLIGK(biotin))", "assay": "Phage ELISA, binding to immobilized peptide, N-terminal G", "experimental": "(§1) Given the discovery that the specificity pocket library was functionally robust, selections against synthetic peptide ligands were carried out using this library. The specificity pocket library was selected against 20 biotinylated peptides, each with a different N-terminal residue atop a common leader sequence (X-SDGMFTAGSLIGK(biotin)) (SEQ ID NO: 4). The peptides were immobilized individually to the bottom wells of a microtiter plate. […] Consequently, ClpS mutant variants that prefer other residues in addition to the ligand ‘bait’ would bind those competing peptides in solution and simply be washed away. Only selective variants that bound to the immobilized target(s) were amplified during each subsequent round of selection.\n(§2) To evaluate the specificity and selectivity of individual clones, both wild-type ClpS and the selected variants' binding to each of the biotinylated peptides independently were tested. The same approach was also used to monitor the progress of the selections and to prioritize particular pools of phage for further investigation.\n(§3) Promising single clones were picked from the selection pools and their specificity was evaluated using the same panel of biotinylated peptides and various amounts of phage supernatant. […] Accordingly, Variant 1 represents a selective N-terminal amino acid capture probe for tryptophan useful for the sequencing methods described herein. Variant 1 also represents a useful scaffold for performing further generation and selection of variants with desirable properties for use as additional N-terminal amino acid capture probes.\n(§4) The selection and ELISA protocols are very similar. Briefly, each well of a 96-well Maxisorp plate was coated overnight at 4° C. with 100 μl of 10 μg/ml neutravidin in PBS, or 1:500 dilution of anti-FLAG antibody. […]\n(§5) For the ELISA readouts, 100 μl of pH adjusted phage supernatant or polyethylene glycol (PEG) precipitated concentrated phage was added to appropriate wells and allowed to bind for 1 hour at 4° C. […] The reaction was stopped by addition of 90 μl of 1M H3PO4 and the absorbance at A450 nm was read."}, "[2]": {"system": "immobilized biotinylated peptide, N-terminal amino acid D (X-SDGMFTAGSLIGK(biotin))", "assay": "Phage ELISA, binding to immobilized peptide, N-terminal D", "experimental": "as §1, §2, §3, §4, §5"}, "[3]": {"system": "immobilized biotinylated peptide, N-terminal amino acid N (X-SDGMFTAGSLIGK(biotin))", "assay": "Phage ELISA, binding to immobilized peptide, N-terminal N", "experimental": "as §1, §2, §3, §4, §5"}, "[4]": {"system": "immobilized biotinylated peptide, N-terminal amino acid R (X-SDGMFTAGSLIGK(biotin))", "assay": "Phage ELISA, binding to immobilized peptide, N-terminal R", "experimental": "as §1, §2, §3, §4, §5"}, "[5]": {"system": "immobilized biotinylated peptide, N-terminal amino acid H (X-SDGMFTAGSLIGK(biotin))", "assay": "Phage ELISA, binding to immobilized peptide, N-terminal H", "experimental": "as §1, §2, §3, §4, §5"}, "[6]": {"system": "immobilized biotinylated peptide, N-terminal amino acid C (X-SDGMFTAGSLIGK(biotin))", "assay": "Phage ELISA, binding to immobilized peptide, N-terminal C", "experimental": "as §1, §2, §3, §4, §5"}, "[7]": {"system": "immobilized biotinylated peptide, N-terminal amino acid K (X-SDGMFTAGSLIGK(biotin))", "assay": "Phage ELISA, binding to immobilized peptide, N-terminal K", "experimental": "as §1, §2, §3, §4, §5"}, "[8]": {"system": "immobilized biotinylated peptide, N-terminal amino acid W (X-SDGMFTAGSLIGK(biotin))", "assay": "Phage ELISA, binding to immobilized peptide, N-terminal W", "experimental": "as §1, §2, §3, §4, §5"}, "[9]": {"system": "immobilized biotinylated peptide, N-terminal amino acid P (X-SDGMFTAGSLIGK(biotin))", "assay": "Phage ELISA, binding to immobilized peptide, N-terminal P", "experimental": "as §1, §2, §3, §4, §5"}, "[10]": {"system": "leucine, phenylalanine, tyrosine and tryptophan N-termini", "settings": "Schuenemann et al. 2009; Tasaki et al. 2009; cited from earlier work"}, "Leu-peptides": {"system": "Leu-peptides", "assay": "Phage binding to immobilized peptides or control peptides, ELISA (FIG. 6B)", "settings": "negative controls BSA, SA, NA", "excerpt": "Selected peptide ligands during were synthesized with C-terminal biotin-lysine residues. The biotinylated peptides were immobilized on neutravidin-coated wells of a microtiter plate by passive adsorption, alongside additional control proteins.\nThe ClpS domains were N-terminally FLAG-tagged as shown in FIG. 6A so that display of the recombinant phage coat protein would be detectable (using commercial anti-FLAG antibody), even if the domains were not able to bind ligand. […] The expressed proteins also contained an ST2 secretion signal that is cleaved off and a C-terminal phage coat protein p3 (that is, fused to the C-terminus/residue 106 of E. coli ClpS) as shown in FIG. 6C.\nas §4, with “antibody. Plates were washed three times with PBS+0.50% TWEEN-20 (PT) and blocked for 1 hour at room temperature with 200 ul of PBS+0.5% BSA (PB). Plates were washed again three times with PT.” for “antibody.”\nas §5"}, "[11]": {"system": "immobilized biotinylated peptide, N-terminal amino acid I (X-SDGMFTAGSLIGK(biotin))", "assay": "Phage ELISA, binding to immobilized peptide, N-terminal I", "experimental": "as §1, §2, §3, §4, §5"}, "[12]": {"system": "immobilized biotinylated peptide, N-terminal amino acid M (X-SDGMFTAGSLIGK(biotin))", "assay": "Phage ELISA, binding to immobilized peptide, N-terminal M", "experimental": "as §1, §2, §3, §4, §5"}, "[13]": {"system": "immobilized biotinylated peptide, N-terminal amino acid E (X-SDGMFTAGSLIGK(biotin))", "assay": "Phage ELISA, binding to immobilized peptide, N-terminal E", "experimental": "as §1, §2, §3, §4, §5"}, "[14]": {"system": "panel of 20 biotinylated peptides, each with a different N-terminal residue (X-SDGMFTAGSLIGK(biotin))", "assay": "Phage ELISA specificity profile over the panel of biotinylated peptides", "type": "binding", "settings": "phage displayed; result in words", "experimental": "as §1\nTo evaluate the specificity and selectivity of individual clones, both wild-type ClpS and the selected variants' binding to each of the biotinylated peptides independently were tested. […]\nPromising single clones were picked from the selection pools and their specificity was evaluated using the same panel of biotinylated peptides and various amounts of phage supernatant. […]\nas §5"}, "Leu-peptide": {"molecular_target": "Leu-peptide", "settings": "reported value, wildtype ClpS:Leu-peptide interaction; read-out: dissociation constant (Kd); cited from earlier work"}},
  "data": [
    {"molecule": "B1", "values": [
      {"measurement": "phage ELISA binding signal", "setting": "[1]; N-terminal G, phage 10X, sub Fab", "result": "−0.04"},
      {"measurement": "phage ELISA binding signal", "setting": "[1]; N-terminal amino acid G, Table 1", "result": "−0.04"},
      {"measurement": "phage ELISA binding signal", "setting": "[2]; N-terminal D, phage 10X, sub Fab", "result": "−0.29"},
      {"measurement": "phage ELISA binding signal", "setting": "[2]; N-terminal amino acid D, Table 1", "result": "−0.29"},
      {"measurement": "phage ELISA binding signal", "setting": "[3]; N-terminal N, phage 10X, sub Fab", "result": "−0.05"},
      {"measurement": "phage ELISA binding signal", "setting": "[3]; N-terminal amino acid N, Table 1", "result": "−0.05"},
      {"measurement": "phage ELISA binding signal", "setting": "[4]; N-terminal R, phage 10X, sub Fab", "result": 0.13},
      {"measurement": "phage ELISA binding signal", "setting": "[4]; N-terminal amino acid R, Table 1", "result": 0.13},
      {"measurement": "phage ELISA binding signal", "setting": "[5]; N-terminal H, phage 10X, sub Fab", "result": "−0.03"},
      {"measurement": "phage ELISA binding signal", "setting": "[5]; N-terminal amino acid H, Table 1", "result": "−0.03"},
      {"measurement": "phage ELISA binding signal", "setting": "[6]; N-terminal C, phage 10X, sub Fab", "result": "−0.23"},
      {"measurement": "phage ELISA binding signal", "setting": "[6]; N-terminal amino acid C, Table 1", "result": "−0.23"},
      {"measurement": "phage ELISA binding signal", "setting": "[7]; N-terminal K, phage 10X, sub Fab", "result": 0.05},
      {"measurement": "phage ELISA binding signal", "setting": "[7]; N-terminal amino acid K, Table 1", "result": 0.05},
      {"measurement": "phage ELISA binding signal", "setting": "[8]; N-terminal W, phage 10X, sub Fab", "result": 0.77},
      {"measurement": "phage ELISA binding signal", "setting": "[8]; N-terminal amino acid W, Table 1", "result": 0.77},
      {"measurement": "phage ELISA binding signal", "setting": "[9]; N-terminal P, phage 10X, sub Fab", "result": "−0.07"},
      {"measurement": "phage ELISA binding signal", "setting": "[9]; N-terminal amino acid P, Table 1", "result": "−0.07"},
      {"measurement": "affinities", "setting": "[10]", "result": "single-digit micromolar to nanomolar"},
      {"measurement": "binding of phage-displayed ClpS to immobilized peptides", "setting": "Leu-peptides; listed as ClpS from E. coli", "result": "binds two of the Leu-peptides specifically, without cross reactivity to any of the negative controls"},
      {"measurement": "binding of phage-displayed ClpS to immobilized peptides", "setting": "Leu-peptides; listed as ClpS from Escherichia coli", "result": "able to bind its cognate ligand (immobilized Leucine)"},
      {"measurement": "phage ELISA binding signal", "setting": "[11]; N-terminal I, phage 10X, sub Fab", "result": "−0.16"},
      {"measurement": "phage ELISA binding signal", "setting": "[11]; N-terminal amino acid I, Table 1", "result": "−0.016"},
      {"measurement": "phage ELISA binding signal", "setting": "[12]; N-terminal M, phage 10X, sub Fab", "result": "−0.11"},
      {"measurement": "phage ELISA binding signal", "setting": "[12]; N-terminal amino acid M, Table 1", "result": "−0.11"},
      {"measurement": "phage ELISA binding signal", "setting": "[13]; N-terminal E, phage 10X, sub Fab", "result": "−0.26"},
      {"measurement": "phage ELISA binding signal", "setting": "[13]; N-terminal amino acid E, Table 1", "result": "−0.26"},
      {"measurement": "binding specificity / preference for N-terminal amino acids", "setting": "[14]", "result": "clear preference for Leu, Tyr, Phe and, more weakly, Trp peptides"},
      {"measurement": "Kd", "setting": "Leu-peptide", "result": 4.8, "unit": "µM"}
    ]}
  ]
}
